Reference: US20240245798A1 (TUBULIS, published 2024)

Columns and labels:
[1] = biological target: T1, purified recombinant human 5T4 antigen, extracellular domain as 6x-Histidine fusion protein (glycosylated) (human, UniProt Q13641 32-355); test: ELISA on immobilized recombinant human 5T4 ECD-6xHis; apparent KD, one-site specific binding fit
T1 construct: Expressed in Expi-HEK293; also called glycosylated 5T4; recombinant immobilized human 5T4 antigen; not shown: 6x-Histidine tag
T1 sequence: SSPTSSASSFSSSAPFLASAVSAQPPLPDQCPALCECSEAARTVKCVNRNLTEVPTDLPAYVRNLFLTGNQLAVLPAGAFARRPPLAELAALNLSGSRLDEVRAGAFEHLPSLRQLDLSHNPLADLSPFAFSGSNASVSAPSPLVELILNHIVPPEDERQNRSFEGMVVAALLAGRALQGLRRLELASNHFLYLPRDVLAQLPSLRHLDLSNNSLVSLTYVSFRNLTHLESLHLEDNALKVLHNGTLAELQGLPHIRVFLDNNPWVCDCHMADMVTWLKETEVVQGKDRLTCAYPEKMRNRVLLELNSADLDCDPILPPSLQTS

[2] = biological target: T2, recombinant hexameric human C1q complement protein (human, UniProt P02745 23-245; P02746 28-253; P02747 29-245, limits assumed); test: HTRF human C1q binding assay (Cisbio)
T2 construct: Described only as recombinant hexameric C1q; also called complement factor C1q

[3] = biological target: T3, purified recombinant human 5T4 antigen, extracellular domain as 6x-Histidine fusion protein, de-glycosylated … (human, UniProt Q13641 32-355, de-glycosylated with PNGase F over night at 37 C); test: ELISA on immobilized PNGase F-treated recombinant human 5T4 ECD-6xHis; apparent KD, one-site specific binding fit
T3 construct: Same construct as m5 after PNGase F treatment; also called de-glycosylated 5T4; not shown: 6x-Histidine tag
T3 sequence: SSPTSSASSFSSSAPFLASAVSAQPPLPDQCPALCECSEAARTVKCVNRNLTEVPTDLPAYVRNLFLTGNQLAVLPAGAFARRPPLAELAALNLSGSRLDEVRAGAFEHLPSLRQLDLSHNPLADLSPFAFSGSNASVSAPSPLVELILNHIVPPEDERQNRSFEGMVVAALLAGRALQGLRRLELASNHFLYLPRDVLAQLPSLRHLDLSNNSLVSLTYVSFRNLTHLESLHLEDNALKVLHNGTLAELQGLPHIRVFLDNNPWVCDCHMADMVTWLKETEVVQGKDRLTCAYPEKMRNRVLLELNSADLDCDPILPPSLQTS

[4] = biological target: T4, human full-length 5T4-(GGGGS)-mCherry, transiently expressed on HEK293 cells (human, UniProt Q13641 32-420); test: flow cytometry on mCherry-positive HEK293 cells transiently expressing human full-length 5T4-mCherry, one-site specific binding fit
T4 construct: also called human full-length 5T4-mCherry; not shown: mCherry fluorescent protein
T4 sequence: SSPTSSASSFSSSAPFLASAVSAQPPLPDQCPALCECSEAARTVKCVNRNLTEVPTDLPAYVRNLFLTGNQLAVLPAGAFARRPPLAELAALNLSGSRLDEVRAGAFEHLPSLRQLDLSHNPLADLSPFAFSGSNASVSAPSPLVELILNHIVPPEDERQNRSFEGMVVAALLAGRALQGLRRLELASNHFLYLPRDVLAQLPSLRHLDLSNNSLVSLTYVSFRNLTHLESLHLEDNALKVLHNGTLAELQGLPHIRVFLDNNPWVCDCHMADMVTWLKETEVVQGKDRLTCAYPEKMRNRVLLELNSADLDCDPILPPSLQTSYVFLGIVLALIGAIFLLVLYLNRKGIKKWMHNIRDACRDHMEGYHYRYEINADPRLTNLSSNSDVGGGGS

[5] = biological target: T5, human 5T4 (trophoblast glycoprotein, TPBG), endogenously expressed on tumor cells (human, UniProt Q13641 32-420); test: flow cytometry on MDA-MB-468 cells endogenously expressing human 5T4, 0.002 to 200 nM, one-site specific binding fit
T5 construct: the protein stood on cell lines that express it endogenously; also called endogenously expressed human 5T4; MDA-MB-468 cells
T5 sequence: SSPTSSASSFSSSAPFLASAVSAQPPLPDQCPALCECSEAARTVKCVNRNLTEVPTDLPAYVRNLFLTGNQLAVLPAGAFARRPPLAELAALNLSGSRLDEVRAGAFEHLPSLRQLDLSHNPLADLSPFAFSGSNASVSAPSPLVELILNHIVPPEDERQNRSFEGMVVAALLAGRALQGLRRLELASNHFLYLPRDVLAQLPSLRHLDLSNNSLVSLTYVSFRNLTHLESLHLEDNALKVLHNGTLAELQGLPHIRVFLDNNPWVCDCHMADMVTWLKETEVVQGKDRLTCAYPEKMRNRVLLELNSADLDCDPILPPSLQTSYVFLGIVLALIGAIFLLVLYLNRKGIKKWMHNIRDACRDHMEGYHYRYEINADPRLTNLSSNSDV

[6] = biological target: T6, white-tufted-ear marmoset full-length 5T4-(GGGGS)-mCherry, transiently expressed on HEK293 cells (white-tufted-ear marmoset (Callithrix …, UniProt Q13641 32-420 (human entry))); test: flow cytometry on mCherry-positive HEK293 cells transiently expressing marmoset full-length 5T4-mCherry, one-site specific binding fit
T6 construct: also called marmoset full-length 5T4-mCherry; marmoset 5T4; not shown: mCherry fluorescent protein
T6 chain: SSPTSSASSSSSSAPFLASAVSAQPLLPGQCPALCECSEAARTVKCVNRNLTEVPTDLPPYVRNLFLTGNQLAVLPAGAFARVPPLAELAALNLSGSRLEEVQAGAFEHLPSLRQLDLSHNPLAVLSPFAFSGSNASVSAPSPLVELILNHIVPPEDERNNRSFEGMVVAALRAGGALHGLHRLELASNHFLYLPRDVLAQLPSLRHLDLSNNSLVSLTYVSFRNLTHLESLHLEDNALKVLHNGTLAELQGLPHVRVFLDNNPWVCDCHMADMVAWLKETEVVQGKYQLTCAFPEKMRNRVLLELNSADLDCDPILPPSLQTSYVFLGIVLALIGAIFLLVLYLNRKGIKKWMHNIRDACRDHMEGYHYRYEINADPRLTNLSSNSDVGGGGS

T2 sequence (P02745 23-245 limits assumed, chain 1 of 3): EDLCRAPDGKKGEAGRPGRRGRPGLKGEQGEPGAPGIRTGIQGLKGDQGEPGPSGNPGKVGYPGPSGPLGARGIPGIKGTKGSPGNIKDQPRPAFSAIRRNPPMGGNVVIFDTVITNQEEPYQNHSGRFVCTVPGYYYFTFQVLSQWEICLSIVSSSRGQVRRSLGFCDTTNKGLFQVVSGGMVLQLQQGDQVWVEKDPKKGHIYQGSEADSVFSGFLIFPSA
T2 sequence (P02746 28-253 limits assumed, chain 2 of 3): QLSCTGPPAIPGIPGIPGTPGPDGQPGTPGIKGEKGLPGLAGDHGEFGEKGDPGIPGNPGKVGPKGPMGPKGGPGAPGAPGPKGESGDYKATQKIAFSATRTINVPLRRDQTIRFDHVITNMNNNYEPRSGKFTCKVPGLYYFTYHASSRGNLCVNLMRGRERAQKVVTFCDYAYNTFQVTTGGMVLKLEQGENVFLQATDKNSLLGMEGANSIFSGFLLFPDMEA
T2 sequence (P02747 29-245 limits assumed, chain 3 of 3): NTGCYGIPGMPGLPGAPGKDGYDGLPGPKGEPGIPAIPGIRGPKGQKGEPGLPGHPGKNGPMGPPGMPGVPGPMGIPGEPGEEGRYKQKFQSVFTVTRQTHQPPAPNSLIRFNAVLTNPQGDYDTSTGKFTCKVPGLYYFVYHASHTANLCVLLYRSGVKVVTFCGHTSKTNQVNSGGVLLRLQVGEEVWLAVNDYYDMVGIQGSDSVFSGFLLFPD

B1: anti-TPBG antibody HC-LALA (LALA-silenced anti-TPBG antibody) (antibody)
heavy: not shown
light: EIVMTQSPDSLAVSLGERATINCKASQSVSNDVAWYQQKPGQPPKLLIYYTSSRYAGVPDRFSGSGSGTDFTLTISSLQAEDVAVYYCQQDYNSPPTFGGGTKLEIKRTVAAPSVFIFPPSDEQLKSGTASVVCLLNNFYPREAKVQWKVDNALQSGNSQESVTEQDSKDSTYSLSSTLTLSKADYEKHKVYACEVTHQGLSSPVTKSFNRGEC
notes: also called anti-TBPG antibody; anti-TPBG mAb HC-LALA
Kd [1]: 0.1 nM
binding result [2]: no binding (tested: serial dilutions 280 nM-11.6 nM)
Kd [3]: 0.16 nM
Kd [4]: 2.15 nM
Kd [5]: 0.247 nM
Kd [6]: 5.46 nM
